We go through one substance from US20130052177.

pKd: −log10 of the molar value.

In data set [1] the test system is Flavo-KRS (monomeric full-length KRS with E. coli flavodoxin inserted at G310) (Homo sapiens / Escherichia coli fusion). Kind of data set: EMSA. Conditions: affinity from percent free tRNA; slightly weaker than native KRS; 0.1 uM tRNA; 20 mM HEPES pH 7.5, 20 mM KCl, 5 mM MgCl2, 2 mM DTT, on ice. On the technique in general: A gel shift assay detects complexes by their altered migration in electrophoresis.

The target of data set [2] is KRS (lysyl-tRNA synthetase, full-length 1-597) (Homo sapiens) (UniProt Q15046). Briefly: EMSA. To be noted: affinity from percent free tRNA; 0.1 uM tRNA; 20 mM HEPES pH 7.5, 20 mM KCl, 5 mM MgCl2, 2 mM DTT, on ice.
KRS (lysyl-tRNA synthetase, full-length 1-597) (Homo sapiens), sequence (Q15046 whole entry): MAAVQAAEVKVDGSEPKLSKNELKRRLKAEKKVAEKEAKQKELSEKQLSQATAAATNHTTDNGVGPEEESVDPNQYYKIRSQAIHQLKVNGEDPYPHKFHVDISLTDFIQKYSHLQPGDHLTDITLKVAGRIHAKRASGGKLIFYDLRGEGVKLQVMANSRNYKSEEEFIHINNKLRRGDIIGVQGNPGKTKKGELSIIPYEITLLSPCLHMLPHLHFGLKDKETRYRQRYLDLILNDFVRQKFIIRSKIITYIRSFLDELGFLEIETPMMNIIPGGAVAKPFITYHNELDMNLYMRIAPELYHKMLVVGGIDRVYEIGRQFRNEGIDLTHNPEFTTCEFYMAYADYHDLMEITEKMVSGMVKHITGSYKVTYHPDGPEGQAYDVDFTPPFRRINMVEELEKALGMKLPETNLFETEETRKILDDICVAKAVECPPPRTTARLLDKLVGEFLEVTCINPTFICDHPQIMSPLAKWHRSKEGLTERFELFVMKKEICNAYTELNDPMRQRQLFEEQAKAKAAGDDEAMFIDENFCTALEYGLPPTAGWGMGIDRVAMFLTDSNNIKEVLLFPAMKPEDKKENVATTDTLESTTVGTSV

What is called pKd is the Kd on a negative log10 scale, so that one unit is a factor of ten. As for human tRNALys3 (in vitro transcript), the pKd in data set [1] is 5.92; in data set [2], 6.06.
